Assay [1] has as its target T1, human MSLN-R1-his protein (human, UniProt Q13421 296-390).
T1 construct: Region 1 of human mesothelin, made in HEK293E cells, His-tagged; also called human MSLN-R1 protein; hMSLN-R1-his; not shown: His tag
T1 chain: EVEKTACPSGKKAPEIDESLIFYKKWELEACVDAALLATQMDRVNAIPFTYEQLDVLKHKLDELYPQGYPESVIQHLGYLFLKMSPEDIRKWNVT
Put plainly: ELISA on coated MSLN-R1; antibody 1 nM.

Assay [2] addresses T2, human MSLN-R2-his protein (human, UniProt Q13421 391-486).
T2 construct: Region 2 of human mesothelin, made in HEK293E cells, His-tagged; also called human MSLN-R2 protein; hMSLN-R2-his; not shown: His tag
Put plainly: ELISA on coated MSLN-R2; antibody 1 nM.

Assay [3] has as its target T3, human MSLN-R3-his protein (human, UniProt Q13421 487-598).
T3 construct: Region 3 of human mesothelin, made in HEK293E cells, His-tagged; also called human MSLN-R3 protein; hMSLN-R3-his; not shown: His tag
Put plainly: ELISA on coated MSLN-R3; antibody 1 nM.

Assay [4] has as its target T1, human MSLN-R1-his protein. Put plainly: ELISA on coated MSLN-R1; antibody 10 nM.
Protocol: (§1) The plate was sealed with a plastic film and incubated at 4° C. overnight. The next day, the plate was washed twice with PBST, and a blocking buffer [PBS+2% (w/w) BSA] was added for blocking at room temperature for 2 h. The blocking buffer was discarded, and a chimeric antibody or negative control antibody serially diluted from 100 nM was added at 50 μL/well. After incubation at 37° C. for 2 h, the plate was washed 3 times with PBST. […] After incubation at 37° C. for 2 h, the plate was washed 5 times with PBST. A TMB substrate was added at 50 μL/well for incubation at room temperature for 5-10 min, and then a stop solution (1.0 N HCl) was added at 50 μL/well.
Assay [5] addresses T2, human MSLN-R2-his protein. Put plainly: ELISA on coated MSLN-R2; antibody 10 nM.
Protocol: as §1
Assay [6] concerns the target T3, human MSLN-R3-his protein. Put plainly: ELISA on coated MSLN-R3; antibody 10 nM.
Protocol: as §1
Assay [7] concerns the target T1, human MSLN-R1-his protein. In words: ELISA on coated MSLN-R1; antibody 0.1 nM.
Protocol: as §1
The target of assay [8] is T1, human MSLN-R1-his protein. In words: ELISA on coated MSLN-R1; antibody 100 nM.
Assay [9] has as its target T2, human MSLN-R2-his protein. Put plainly: ELISA on coated MSLN-R2; antibody 0.1 nM.
Protocol: as §1
Assay [10] has as its target T2, human MSLN-R2-his protein. Put plainly: ELISA on coated MSLN-R2; antibody 100 nM.
Protocol: as §1
In assay [11] the target is T3, human MSLN-R3-his protein. In words: ELISA on coated MSLN-R3; antibody 0.1 nM.
Protocol: as §1
Assay [12] has as its target T3, human MSLN-R3-his protein. Put plainly: ELISA on coated MSLN-R3; antibody 100 nM.
Protocol: as §1
Assay [13] has as its target T1, human MSLN-R1-his protein. In words: ELISA on coated MSLN-R1; antibody 0.01 nM.
Protocol: as §1
For assay [14], the target named is T2, human MSLN-R2-his protein. Put plainly: ELISA on coated MSLN-R2; antibody 0.01 nM.
Protocol: as §1
Assay [15] concerns the target T3, human MSLN-R3-his protein. Put plainly: ELISA on coated MSLN-R3; antibody 0.01 nM.
Protocol: as §1
In assay [16] the target is T1, human MSLN-R1-his protein. In words: ELISA on coated MSLN-R1; antibody 0.001 nM.
Protocol: as §1
Assay [17] has as its target T2, human MSLN-R2-his protein. Put plainly: ELISA on coated MSLN-R2; antibody 0.001 nM.
Assay [18] concerns the target T3, human MSLN-R3-his protein. In words: ELISA on coated MSLN-R3; antibody 0.001 nM.
Protocol: as §1
For assay [19], the target named is T1, human MSLN-R1-his protein. In words: ELISA on coated MSLN-R1; antibody 0.0001 nM.
Protocol: as §1
Assay [20] deals with T2, human MSLN-R2-his protein. In words: ELISA on coated MSLN-R2; antibody 0.0001 nM.
Assay [21] deals with T3, human MSLN-R3-his protein. Put plainly: ELISA on coated MSLN-R3; antibody 0.0001 nM.
Protocol: as §1
For assay [22], the target named is T1, human MSLN-R1-his protein. In words: ELISA on coated MSLN-R1; no antibody (blank).
The target of assay [23] is T2, human MSLN-R2-his protein. Put plainly: ELISA on coated MSLN-R2; no antibody (blank).
Assay [24] concerns the target T3, human MSLN-R3-his protein. In words: ELISA on coated MSLN-R3; no antibody (blank).

T2 sequence (Q13421 other isoform, or with tags, fused parts or gaps): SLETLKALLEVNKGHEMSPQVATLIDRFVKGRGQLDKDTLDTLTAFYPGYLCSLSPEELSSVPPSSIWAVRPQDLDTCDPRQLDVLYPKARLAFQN
T3 sequence (Q13421 495-606): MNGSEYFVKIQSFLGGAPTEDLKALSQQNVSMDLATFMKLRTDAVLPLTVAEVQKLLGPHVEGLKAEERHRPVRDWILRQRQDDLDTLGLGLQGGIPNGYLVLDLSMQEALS

B1: S009-F8-4.5 (antibody, human IgG1, kappa, V domains shown)
VH: QVQLQQPGAELVKPGASVKLSCKASGYTFTIYWMHWVKQRPGQGLEWIGMIHPNSGNTNYNEKFKSKATLTVDKSSSTAYMQLSSLTSEDSAVYYCSLIHWYFDVWGTGTTVTVSS
VL: QIVLTQSPAIMSASPGEKVTMTCSASSSVSYMYWYQQKPGSSPRLLIYDTSNLASGVPVRFSGSGSGTSYSLTISRMEAEDAATYYCQQWSSYPLTFGAGTKLELKR
B1: the OD450 in assay [1] worked out at 0.05 OD450; in [2] it was 0.05 OD450; in assay [3], 0.05 OD450; in [4], 0.09 OD450; in assay [5] it was 0.06 OD450; in assay [6], 0.07 OD450. Also, the OD450 in assay [7] was 0.05 OD450; in assay [8], 0.24 OD450; in assay [9], 0.05 OD450; in assay [10], 0.08 OD450; in assay [11], 0.05 OD450; in [12], 0.12 OD450. The OD450 in assay [13] came to 0.05 OD450; in assay [14], 0.05 OD450; in assay [15], 0.04 OD450; in assay [16], 0.05 OD450; in assay [17] it was 0.05 OD450; in assay [18] it was 0.05 OD450. Besides, the OD450 in assay [19] is 0.05 OD450; in [20], 0.05 OD450; in assay [21] it was 0.05 OD450; in assay [22], 0.05 OD450; in assay [23] it was 0.05 OD450; in assay [24] it was 0.06 OD450.

B2: S009-F8-5.15 (antibody, human IgG1, kappa, V domains shown)
VH: QVQLQQPGTELVKPGASVKLSCKASGYTFTSYWMHWVKQRPGQGLEWIGHSNPSNGGTNYNEKFKSKATLTVDKSSSTAYMQLSSLTSEDSAVYYCARWVRGSNYEYFDVWGTGTTVTVSS
VL: DIVMTQSQKFMSTTVGDRVSIICKASQNVGSAVAWCQQKPGQSPKLLIYSASNRYTGVPDRFTGSGSGTDFTLTISNMQSEDLADYFCQQYSSYPLTFAGGTKLEIKR
As for B2, the OD450 in assay [1] amounted to 0.68 OD450; in assay [2], 0.04 OD450; in [3] it was 0.04 OD450; in [4] it was 1.65 OD450; in assay [5], 0.05 OD450; in assay [6] it was 0.05 OD450. In addition, the OD450 in [7] turned out to be 0.12 OD450; in assay [8], 2.29 OD450; in assay [9], 0.04 OD450; in assay [10], 0.05 OD450; in assay [11], 0.04 OD450; in assay [12] it was 0.06 OD450. For the same molecule, the OD450 was 0.05 OD450 in assay [13]; 0.04 OD450 in assay [14]; 0.04 OD450 in [15]; 0.05 OD450 in assay [16]; 0.05 OD450 in assay [17]; 0.05 OD450 in assay [18]. Besides, the OD450 amounted to 0.04 OD450 in [19]; 0.05 OD450 in assay [20]; 0.04 OD450 in assay [21]; 0.05 OD450 in [22]; 0.05 OD450 in assay [23]; 0.05 OD450 in assay [24].

B3: S009-F8-8.22 (antibody, human IgG1, kappa, V domains shown)
VH: EVQLQQSGPELVKPGASVKMSCKASGYTFTDYIIHWVKQSHGKSLEWIAYIFPNNGGTGYNQKFRGKATLTVNKSSSTAYMELRSLTSEDSAVYYCARWRLRQYFDVWGTGTTVTVSS
VL: DIVMTQSQKFMSTIVGDRVSITCKASQNVGTAVAWYQQKPGQSPKLLIYSASNRYTGVPDRFTGSGSGTDFTLTISNMQSEDLADYFCQQYSSYPLTFGGGTKLEIKR
Take B3: the OD450 came out at 2.46 OD450 in [1]; 0.04 OD450 in [2]; 0.05 OD450 in [3]; 2.63 OD450 in assay [4]; 0.05 OD450 in [5]; 0.08 OD450 in assay [6]. The OD450 is 1.78 OD450 in assay [7]; 2.63 OD450 in assay [8]; 0.04 OD450 in [9]; 0.09 OD450 in assay [10]; 0.04 OD450 in [11]; 0.15 OD450 in assay [12]. Besides, the OD450 is 0.61 OD450 in [13]; 0.04 OD450 in assay [14]; 0.04 OD450 in [15]; 0.16 OD450 in [16]; 0.05 OD450 in assay [17]; 0.04 OD450 in assay [18]. The OD450 is 0.08 OD450 in assay [19]; 0.05 OD450 in [20]; 0.04 OD450 in assay [21]; 0.06 OD450 in assay [22]; 0.04 OD450 in assay [23]; 0.04 OD450 in [24].

B4: S009-F8-7.5 (antibody, human IgG1, kappa, V domains shown)
VH: DVQLQESGPGLVKPSQSLSLTCSVTGYSITSGYYWNWIRQFPGNKLEWMAYIRYDGSNNYNPSLKNRISIIRDTSKNQFFLRLNSVTTEDTATYYCAKSYYGMDDWGQGISVTVSS
VL: DIQMTQSPASLSASVGETVTITCRTSGDIHNYLAWYQQKQGKSPQLLVYKAKTLENGVPSRFTGSGSGTQFSLKIDSLQPEDFGTYYCQHFWTTPYTFGGGTKLEIKR
In the case of B4, the OD450 in assay [1] is 0.05 OD450; in [2], 1.85 OD450; in assay [4], 0.06 OD450; in assay [5] it was 2.18 OD450; in assay [7], 0.05 OD450; in assay [8] it was 0.12 OD450. Moreover, the OD450 in assay [9] came to 1.18 OD450; in assay [10] it was 2.32 OD450; in [13], 0.04 OD450; in assay [14] it was 0.31 OD450; in assay [16] it was 0.05 OD450; in assay [17] it was 0.09 OD450. In addition, the OD450 came to 0.04 OD450 in assay [19], 0.06 OD450 in assay [20], 0.05 OD450 in assay [22] and 0.05 OD450 in [23].

B5: Tab106 (YP218, hIgG1) (antibody, V domains shown)
VH: QQQLEESGGGLVKPEGSLTLTCKASGFDLGFYFYACWVRQAPGKGLEWIACIYTAGSGSTYYASWAKGRFTISKASSTTVTLQMTSLAAADTATYFCARSTANTRSTYYLNLWGPGTLVTVSS
VL: DVVMTQTPASVSEPVGGTVTIKCQASQRISSYLSWYQQKPGQRPKLLIFGASTLASGVPSRFKGSGSGTEYTLTISDLECADAATYYCQSYAYFDSNNWHAFGGGTEVVVRT
notes: also called YP218 human IgG1 antibody
Turning to B5, the OD450 in assay [2] worked out at 0.04 OD450; in assay [3], 1.99 OD450; in assay [5], 0.06 OD450; in assay [6], 1.81 OD450; in assay [9], 0.04 OD450; in assay [10] it was 0.22 OD450. For the same molecule, the OD450 in assay [11] stood at 1.38 OD450; in assay [12], 2.28 OD450; in [14] it was 0.04 OD450; in assay [15], 0.52 OD450; in [17] it was 0.04 OD450; in [18], 0.14 OD450. Further, the OD450 in assay [20] was found to be 0.04 OD450; in [21] it was 0.09 OD450; in assay [23], 0.04 OD450; in assay [24] it was 0.04 OD450.

Values taken from patent publication US20250250357A1 (NANJING ZAIMING PHARMACEUTICAL, published 2025).
